Reference: publication PMC10157173 (Frontiers in Immunology, 2023)
Each block holds one binder with its values, some of them ahead of it.

Columns and labels:
[1] = molecular target: T1, His-tagged recombinant human EGFR ECD (Homo sapiens (Human)., UniProt P00533); test: ELISA; direct ELISA: His-tagged EGFR, HER2 or HER3 coated at 800 ng/ml in PBS on Maxisorp plates; two-fold or ten-fold dilutions of BiXAb™ or 1MAbs in PBS, 37°C, 1 h; detected with peroxidase-conjugated anti-human Fc; conditions: both partners purified
T1 construct: human EGFR, extracellular domain (ECD); see the supplier's catalogue entry; also called EGFR-His; source: bought: Sino Biological Inc (#10001-H08H)

[2] = molecular target: T2, His-tagged recombinant human HER3 ECD (Homo sapiens (Human)., UniProt P21860); test: as above; conditions: both partners purified
T2 construct: human HER3, extracellular domain (ECD); see the supplier's catalogue entry; also called HER3-His; source: bought: Sino Biological Inc (#10201-H08H)

- binding result [1]: binds
B1: matuzumab (antibody, V domains shown)
VH: QVQLVQSGAEVKKPGASVKVSCKASGYTFTSHWMHWVRQAPGQGLEWIGEFNPSNGRTNYNEKFKSKATMTVDTSTNTAYMELSSLRSEDTAVYYCASRDYDYDGRYFDYWGQGTLVTVSS
VL: DIQMTQSPSSLSASVGDRVTITCSASSSVTYMYWYQQKPGKAPKLLIYDTSNLASGVPSRFSGSGSGTDYTFTISSLQPEDIATYYCQQWSSHIFTFGQGTKVEIK
notes: heavy chain of matuzumab; light chain of matuzumab; also called 1Matu; anti-EGFR mAb; source: cloning, production and purification of mAbs at Icosagen; matuzumab also donated by Merck AG; copies: 2 + 2

- binding result [2]: binds
B2: elgemtumab (antibody, V domains shown)
VH: EVQLLESGGGLVQPGGSLRLSCAASGFTFSSYAMSWVRQAPGKGLEWVSAINSQGKSTYYADSVKGRFTISRDNSKNTLYLQMNSLRAEDTAVYYCARWGDEGFDIWGQGTLVTVSS
VL: DIQMTQSPSSLSASVGDRVTITCRASQGISNWLAWYQQKPGKAPKLLIYGASSLQSGVPSRFSGSGSGTDFTLTISSLQPEDFATYYCQQYSSFPTTFGQGTKVEIK
notes: heavy chain of elgemtumab; light chain of elgemtumab; also called 3Elgem; anti-HER3 mAb; source: cloning, production and purification of mAbs at Icosagen; copies: 2 + 2

- binding result [2]: binds
B3: patritumab (antibody, V domains shown)
VH: QVQLQQWGAGLLKPSETLSLTCAVYGGSFSGYYWSWIRQPPGKGLEWIGEINHSGSTNYNPSLKSRVTISVETSKNQFSLKLSSVTAADTAVYYCARDKWTWYFDLWGRGTLVTVSS
VL: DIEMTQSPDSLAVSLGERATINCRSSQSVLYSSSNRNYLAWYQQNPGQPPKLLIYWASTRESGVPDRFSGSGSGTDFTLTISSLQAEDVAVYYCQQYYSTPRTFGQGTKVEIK
notes: heavy chain of patritumab; light chain of patritumab; also called 3Patri; anti-HER3 mAb; source: cloning, production and purification of mAbs at Icosagen; copies: 2 + 2
